The record followed here is patent US20090214534A1.

The target of assay [1] is interleukin-1 type 1 receptor (UniProt P14778). Briefly: cell-based or functional assay.
In assay [2] the target is human serum albumin (human) (UniProt P02768). Kind of assay: sandwich ELISA, HSA-coated plate, control antibody at 1 µM, anti-FITC detection. Background: ELISA stands for enzyme-linked immunosorbent assay.

UniProt P14778, sequence (P14778 18-569 limits assumed): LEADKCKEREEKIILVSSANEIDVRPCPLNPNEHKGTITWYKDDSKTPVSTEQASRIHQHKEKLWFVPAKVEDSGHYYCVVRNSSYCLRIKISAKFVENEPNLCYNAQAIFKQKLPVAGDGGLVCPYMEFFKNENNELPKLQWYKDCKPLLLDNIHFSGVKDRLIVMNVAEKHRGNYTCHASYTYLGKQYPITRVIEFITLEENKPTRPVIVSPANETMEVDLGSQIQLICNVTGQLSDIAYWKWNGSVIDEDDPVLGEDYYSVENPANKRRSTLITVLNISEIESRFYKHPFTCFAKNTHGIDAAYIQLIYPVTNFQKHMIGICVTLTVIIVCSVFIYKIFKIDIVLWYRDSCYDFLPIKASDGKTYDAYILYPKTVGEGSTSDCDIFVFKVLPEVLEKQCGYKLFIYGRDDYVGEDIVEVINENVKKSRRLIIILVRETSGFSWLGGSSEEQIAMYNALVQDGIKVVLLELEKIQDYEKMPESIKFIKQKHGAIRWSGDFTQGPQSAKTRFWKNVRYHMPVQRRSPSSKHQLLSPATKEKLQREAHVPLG

On to “recombinant human IL-1ra (from UniProt P18510 26-177) (ligand)”, for which, in assay [1], the ND50 (neutralizing dose 50) of IL-1-induced IL-8 secretion by MRC-5 cells was 0.5 nM.
For the substance “FITC coupled antibody (negative control)”, in assay [2], the OD600 was 0.049 OD600.
